Measured values reported in patent US20220251518A1 (published 2022).

Molecular target: T1, Aβ1-42, monomer and/or protofibrils (form not told for the result) (human, UniProt P05067 672-713)
T1 construct: domain: amyloid beta (Aβ) 1-42 peptide; also called Aβ1-42 peptide or protofibrils; mixture of Aβ1-42 peptide (monomer) and protofibrils
Test: BLI (Octet RED 96), antibody captured on anti-rat IgG probe; monomer or protofibrils not told

T1 sequence (P05067 672-713 limits assumed): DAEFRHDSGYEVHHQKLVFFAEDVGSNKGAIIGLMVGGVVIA

Kd: 1 pM
B1: monoclonal antibody 11G10 (antibody, V domains shown)
VH: EVQLQQSGAEIVKPGASVKLSCKASGYTFTSYWMHWVKQRPGQGLEWIGEIDPSDSYTNYNQKFKGKATLTVDKSSSTAYMQLRSLTSEDSAVYYCARSFHGNLFVYWGQGTLVTVSA
VL: QIVLTQSPAIMSASPGEKVTITCSASSSVSYMHWFQQKPGTSPKLWIYSTSNLATGVPARFSGSGSGTSYSLTISRMEAEDAATYYCQQRSSYPLTFGAGTKLEIK
